{"source": "patent US20200325231A1", "about": "(CURATORS OF THE UNIVERSITY OF MISSOURI, published 2020)", "target": "T1, Programmed Cell Death Ligand 1 (PD-L1) (human, UniProt Q9NZQ7 19-290)", "T1 construct": "whole, on cells; Endogenous PD-L1 on cells or in fixed tissue sections; No recombinant PD-L1 was used; also called CD274", "T1 sequence (Q9NZQ7 19-290)": "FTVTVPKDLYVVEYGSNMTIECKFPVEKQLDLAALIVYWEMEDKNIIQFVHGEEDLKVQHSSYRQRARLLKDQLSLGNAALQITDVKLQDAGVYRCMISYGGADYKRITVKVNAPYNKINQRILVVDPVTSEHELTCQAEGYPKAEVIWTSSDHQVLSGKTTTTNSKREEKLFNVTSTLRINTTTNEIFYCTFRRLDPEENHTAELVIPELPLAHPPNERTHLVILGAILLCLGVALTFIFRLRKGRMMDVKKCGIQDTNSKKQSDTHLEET", "experiment": "IHC on FFPE placenta, biotinylated peptide, streptavidin-HRP/DAB", "excerpt": "To detect PD-L1 in FFPE tissues, manual IHC techniques were employed with a biotin-conjugated version of peptide RK-10-Cy5 and compared with Ventana PD-L1 (SP263) Rabbit monoclonal Primary Antibody stained on a Roche Benchmark Ultra autostainer. Seven PD-L1 expressing NSCLC patient tissues were obtained from the MU OneHealth tissue bank and de-identified according to IRB protocols. Paraffin-embedded patient tissue slides were baked overnight, then de-waxed and rehydrated according to standard protocols. Tissue sections were then subjected to antigen retrieval in EDTA at 95° C. for 20 minutes in EDTA […]. The solution is then cooled for an additional 20 minutes on the bench top prior to buffer rinse. Tissues were then incubated with 15 biotinylated peptide for 2 hours in a humid chamber at RT. After 2 hours, slides were washed with buffer and treated with PIERCE™ High Sensitivity Streptavidin-HRP (1:200 dilution) (Sigma) for 30 minutes at RT in a humid chamber. Once this was complete, slides were again washed in buffer then treated with DAB (3,3′-Diaminobenzidine; Sigma) for 10 minutes. Slides were again washed in buffer, then dehydrated using graded alcohol and xylene and counterstained with hematoxylin. Slides were then imaged using bright-field microscopy on a Leica DM5500. […]", "note": "Ends that are not written are not given here. * marks the point of attachment. Biotin = O=C1N[C@H]2[C@H](CS[C@H]2CCCCC(=O)*)N1", "data": [{"binder": "Biotin-GSGSGSFVLNWYRMSPSNQTDKLAA (also called Mock peptide RK-11-Biotin)", "note": "[RK-11-Biotin (biotinylated mock peptide)]", "values": [{"measurement": "binding result", "result": "binds"}]}]}
